Results on 2 substances are retold here after patent publication US20130018010A1, “POLYMERIC CONJUGATES OF ADENINE NUCLEOSIDE ANALOGS” (ENZON PHARMACEUTICALS, INC., priority 2010, published 2013).

Data set [1] in a line: Hydrolysis rate of PEG conjugates in rat plasma (HPLC). Type of data set: in vitro ADME. To be noted: 37° C., disappearance of PEG derivative. As to the method:
The rates of hydrolysis were obtained by employing a C18 reversed phase column (Jupiter®) using a gradient mobile phase consisting of (a) 0.05 M TFA buffer and (b) acetonitrile. A flow rate of 1 mL/min was used, and chromatograms were monitored using a UV detector at 260 nm for toyocamycin. For hydrolysis in plasma, the derivatives were dissolved in acetonitrile/MeOH at a concentration of 20 mg/mL. The solution was divided into vials with 100 μL and the solvent removed in vacuo. To the residue, 100 μL of plasma was added, then vortexed for 10 sec. The solutions were incubated at 37° C. for various periods of time. A mixture of methanol-acetonitrile (1:1, v/v, 400 μL) was added to a vial at the proper interval and the mixture was vortexed for 1 min, followed by filtration through […] filter membrane. An aliquot of 40 μL of the filtrate was injected into the HPLC. On the basis of the peak area, the amounts of native compound and PEG conjugates were estimated, and the half-life of each compound in different media was calculated using linear regression analysis from the disappearance of PEG derivative.
The rate of hydrolysis was measured by monitoring disappearance of polymer conjugates and appearance of the parent molecule by HPLC using the procedure for example as described in Example 4 in PBS and in rat plasma.

For data set [2], the system named is human melanoma cells (A375). As to the kind of experiment: Tumor growth inhibition in mice xenografted with human melanoma. The class given is in vivo. The note with it: for tumor growth inhibition: 1 or 5 mg/kg/dose (toyocamycin equivalent) at day 1, 5, 9, 13, compared to toyocamycin i.v. 5 mg/kg/dose, FIG. 18; for tail vein necrosis: 1 or 5 mg/kg/dose at day 1, 5, 9, 13; for effectiveness in the treatment of melanoma: versus untreated, toyocamycin, or 54. Here is the method:
The antitumor efficacies of compounds 6, 10, and 54 evaluated in human melanoma xenografted mice. Xenograft tumors were established in mice by injecting human melanoma cells (A375). The mice were treated with toyocamycin i.v. at 5 mg/kg/dose, or compounds 6, 10, and 54 at 1 or 5 mg/kg/dose (based on the amount of toyocamycin) at day 1, 5, 9, and 13. Control group mice received saline solution.
For orientation: A xenograft is tissue or cells of one species grown in another, often human tumour cells in immunodeficient mice.

Regarding “40 k 4-Arm PEG-Carbamate-Aib-Toyocamycin [Compound 10]”, the “t1/2 in rat plasma” value in data set [1] is 4.1 h. In addition, in data set [2], the tumor growth inhibition result is “inhibited tumor growth significantly compared to toyocamycin”; the tail vein necrosis result is listed as “observed in only one mouse”; the “effectiveness in the treatment of melanoma” value was “more effective in the treatment of melanoma than untreated, toyocamycin, or 54”.
For “40 k 4-Arm PEG-carbamate-Leu-Toyocamycin [Compound 6]”, the “t1/2 in rat plasma” value in data set [1] turned out to be 0.033 h. In addition, in data set [2], the tumor growth inhibition result is recorded as “inhibited tumor growth significantly compared to toyocamycin”; the tail vein necrosis entry was “observed in only one mouse”; the “effectiveness in the treatment of melanoma” value is reported as “more effective in the treatment of melanoma than untreated, toyocamycin, or 54”.
